Test results as given in patent US20140242072A1, “ANTI-ICAM-1 ANTIBODIES TO TREAT MULTIPLE-MYELOMA RELATED DISORDERS” (BIOINVENT INTERNATIONAL AB, priority 2011, published 2014).

Key:
[1] = biological target: T1, ICAM-1 (BI-AB epitope) on cells from multiple-myeloma-related disorders (Homo sapiens, UniProt P05362); assay: BI-AB epitope expression on bone marrow cells of patients with multiple-myeloma-related disorders by flow cytometry; format: binding; conditions: FACS
T1 construct: endogenous in cells; host or cells: primary bone marrow cells (plasma cells) from patients with plasmacytoma, plasma cell leukemia or light chain amyloidosis
T1 sequence (P05362 28-532): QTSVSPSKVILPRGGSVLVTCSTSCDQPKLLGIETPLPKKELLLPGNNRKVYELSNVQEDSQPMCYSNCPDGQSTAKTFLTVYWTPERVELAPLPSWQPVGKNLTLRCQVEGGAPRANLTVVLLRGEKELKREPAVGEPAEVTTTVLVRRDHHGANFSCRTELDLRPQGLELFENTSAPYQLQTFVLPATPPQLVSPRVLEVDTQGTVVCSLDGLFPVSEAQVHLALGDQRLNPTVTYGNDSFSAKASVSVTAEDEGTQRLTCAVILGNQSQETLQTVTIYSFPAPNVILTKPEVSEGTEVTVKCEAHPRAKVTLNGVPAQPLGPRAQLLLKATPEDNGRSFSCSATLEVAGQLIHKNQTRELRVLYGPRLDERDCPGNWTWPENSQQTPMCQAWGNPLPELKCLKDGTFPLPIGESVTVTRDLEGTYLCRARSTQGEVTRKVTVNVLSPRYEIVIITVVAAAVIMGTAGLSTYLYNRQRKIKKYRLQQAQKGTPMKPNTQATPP
Text: FIG. 1: BI-AB epitope expression in a cohort of patients with plasma cell disorders, consecutively analysed at Lund University Hospital, Sweden. • Pat no (Patient number); M (male); F (female); Ig (immunoglobulin class of M-component); M comp (monoclonal Ig component in serum); Skel. destr (number of skeletal destruction as measured by X-ray); n/a (not available); MM-cells (cells from multiple-myeloma-related disorders counted as % of all nucleated cells in bone marrow smears); ISS (International Staging System of MM); T (number of different MM treatment regimes before BI-AB analysis); Diagnosis; AL (amyloid light chain amyloidosis); PCL (plasma cell leukemia); PC (plasmacytoma); Expression level (BI-AB epitope expression level measured by FACS on cells from multiple-myeloma-related disorders: +++ (very highly positive), ++ (highly positive), + (positive) or − (negative); Positive MM cells (BI-AB epitope positive cells from multiple-myeloma-related disorders as measured by FACS).
We evaluated expression of the BI-AB epitope on bone marrow cells in patients with multiple-myeloma-related disorders (plasmacytoma, plasma cell leukemia, and light chain amyloidosis) by flow cytometry (FIG. 1).
Cells from multiple-myeloma-related disorders were identified using fluorescent antibodies against the following surface antigens CD38, CD138, CD45 and CD56 according to European Myeloma Network guidelines on multiparametric flow cytometry in MM (Rawstron et al., 2008) and confirming monoclonal cells from multiple-myeloma-related disorders with intracellular staining of lambda and kappa light chains.

[2] = biological target: T2, Intercellular Adhesion Molecule-1 (ICAM-1) (human, UniProt P05362 28-532); assay: flow cytometry (FACS) on bone marrow plasma cells of patients with PC, PCL or AL
T2 construct: whole, on cells; Endogenous ICAM-1 on primary patient cells; also called CD54
T2 sequence (P05362 28-532): as above

B1: BI-AB antibody (antibody, V domains shown)
VH: EVQLLESGGGLVQPGGSLRLSCAASGFTFSNAWMSWVRQAPGKGLEWVAFIWYDGSNKYYADSVKGRFTISRDNSKNTLYLQMNSLRAEDTAVYYCARYSGWYFDYWGQGTLVTVSS
VL: QSVLTQPPSASGTPGQRVTISCTGSSSNIGAGYDVHWYQQLPGTAPKLLIYDNNNRPSGVPDRFSGSKSGTSASLAISGLRSEDEADYYCQSYDSSLSAWLFGGGTKLTVLG
notes: It says the antibody was described previously in WO 2007/112110; also called exemplary antibody of the invention
**Q.** For B1, which “BI-AB epitope positive cells from multiple-myeloma-related disorders” value ([1]; all patients with plasmacytoma, plasma cell leukemia or light chain amyloidosis) is on record?
**A.** expressed the BI-AB epitope on most cells

**Q.** And the “median BI-AB epitope expression level relative to normal B cells from the same patients” value ([1]; cells from multiple-myeloma-related disorders vs normal B cells)?
**A.** 10 times higher

**Q.** What about the “BI-AB epitope expression level on cells from multiple-myeloma-related disorders” value ([1]; patient bone marrow cells) of the same molecule?
**A.** very highly expressed

**Q.** Does B1 bind [2]?
**A.** binds
